Assay results as given in article PMC9645763, “CK2-mediated phosphorylation of SUZ12 promotes PRC2 function by stabilizing enzyme active site” (Nature Communications, 2022).

Biological target: T1, EZH1 of the truncated minimal complex used for crystallization (human, UniProt Q92800 1-187; Q92800 230-491; Q92800 497-747, residues 353–413 of EZH1 were deleted)
T1 construct: human EZH1, residues 1-187; linker that replaces residues 188–229 of EZH1; human EZH1, residues 230-491 with 353–413 deleted; linker that replaces residues 492–496 of EZH1; human EZH1, residues 497-747; In the crystal joined on one chain with m3 through an LVPRGS linker; source: S. cerevisiae CB010, purified (IgG-sepharose, TEV cleavage, Superdex 200); not shown: His6, N-terminal, …
Assay: crystal structure; truncated minimal EZH1–EED–SUZ12(VEFS) complex at 10 mg/ml pre-incubated with 0.5 mM H3K27M peptide, 0.5 mM H3K27me3 peptide and 1 mM SAM; 10% PEG3350, 100 mM ammonium sulfate, 50 mM HEPES pH 6.8; 3.0 Å
Details: both partners purified

T1 sequence (Q92800 other isoform, or with tags, fused parts or gaps with the stated changes): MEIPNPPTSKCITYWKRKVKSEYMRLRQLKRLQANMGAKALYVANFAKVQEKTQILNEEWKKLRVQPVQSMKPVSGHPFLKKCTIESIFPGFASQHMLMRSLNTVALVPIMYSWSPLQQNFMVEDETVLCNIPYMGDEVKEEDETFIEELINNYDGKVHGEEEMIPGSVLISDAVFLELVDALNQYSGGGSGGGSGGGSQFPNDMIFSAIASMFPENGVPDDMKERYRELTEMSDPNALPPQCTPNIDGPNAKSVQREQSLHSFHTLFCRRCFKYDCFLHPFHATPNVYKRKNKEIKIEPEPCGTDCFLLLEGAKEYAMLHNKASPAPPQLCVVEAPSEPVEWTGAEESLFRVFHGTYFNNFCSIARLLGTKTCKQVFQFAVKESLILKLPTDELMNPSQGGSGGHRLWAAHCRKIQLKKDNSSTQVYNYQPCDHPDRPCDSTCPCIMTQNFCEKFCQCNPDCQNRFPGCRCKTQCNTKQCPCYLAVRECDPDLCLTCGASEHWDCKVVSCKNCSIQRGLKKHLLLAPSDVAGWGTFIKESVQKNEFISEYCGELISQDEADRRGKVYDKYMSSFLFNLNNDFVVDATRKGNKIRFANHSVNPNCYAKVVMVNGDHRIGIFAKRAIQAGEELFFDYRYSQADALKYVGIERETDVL

- binding result: binds
B1: EED of the truncated minimal complex used for crystallization (domain or fragment)
chain: not shown
notes: human EED, residues 1–77 replaced by a StrepII tag; source: S. cerevisiae CB010, co-expressed, purified with the complex (IgG-sepharose, TEV cleavage, Superdex 200); not shown: StrepII, N-terminal, kept
